This data set in a line: pH-moderated solubility (NaOH titration) of ALM-488 salts. Format: physicochemical. Here is the method: A titration experiment was carried out using the ALM-488, HCl salt to determine if a nominal 40-50 mg/mL or higher solubility could be retained as pH is increased by gradual addition of NaOH. […] At solution pH values <4 the peptide remained in solution at concentrations >50 mg/mL. Above pH 4, the peptide precipitated. […] Dilution of the mixture due to base addition decreased the peptide concentration to ~47 mg/mL at pH values >7.
FIG. 8 is an overlay of the titration curves for ALM-488 hydrochloride and the ALM-488 acetate.

In the case of `CC(C)[C@H](NC(=O)[C@H](Cc1ccc(O)cc1)NCCCCC(=O)[C@H](Cc1ccc(O)cc1)NC(=O)[C@@H]1CCCN1C(=O)[C@H](CCC(=O)O)NC(=O)[C@H](CCC(=O)O)NC(=O)[C@H](Cc1c[nH]c2ccccc12)NC(=O)[C@@H]1CCCN1C(=O)[C@@H](NC(=O)[C@H](CCC(N)=O)NC(=O)c1ccc2c(c1)C(=O)OC21c2ccc(O)cc2Oc2cc(O)ccc21)C(C)C)C(=O)N[C@H](C(=O)N[C@@H](CCCCN)C(=O)N[C@@H](CCCCN)C(=O)N[C@@H](CO)C(=O)N[C@@H](CO)C(=O)NCC(=O)NCC(N)=O)C(C)C` [ALM-488 acetate], the “initial pH of mixture” value (before NaOH, acetate mixture ~50 mg/mL) is given as ~ 4. Further, the “amount of NaOH required to adjust pH to ~7” value (compared with hydrochloride salt) was “lower than that for the hydrochloride salt”. Further, the dissolution / appearance result (initial pH ~4, ~50 mg/mL) was “did not completely dissolve and formed an opaque orange dispersion”. Moreover, the appearance result (pH >7, NaOH added) is “clear solution”.

Values taken from patent US20260306676A1, “FLUORESCEIN-LABELED NERVE TARGETING PEPTIDE FORMULATIONS AND RELATED METHODS” (ALUME BIOSCIENCES, INC., priority 2023, published 2026).
